The results in this text go back to the RNAGym collection of RNA variant scans (doi:10.1093/molbev/msab373).

First the molecules themselves.
B1: Azoarcus group I ribozyme (parent)
chain: GUGCCUUGCGCCGGGAAACCACGCAAGGGAUGGUGUCAAAUUCGGCGAAACCUAAGCGCCCGCCCGGGCGUAUGGCAACGCCGAGCCAAGCUUCGGCGCCUGCGCCGAUGAAGGUGUAGAGACUAGACGGCACCCACCUAAGGCAAACGCUAUGGUGAAGGCAUAGUCCAGGGAGUGGCGAAAGUCACACAAACCGG

In the series the parent is B1. Briefly: reverse-splicing fitness (ratio to wild type); higher = more active; in vitro selection; Mg2+ level not given. In outline: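 An in vitro group I ribozyme library with randomized positions was T7-transcribed and gel-purified. In triplicate, 10 pmol RNA in EPPS pH 7.5 was reacted with 50 pmoles of a 30-nt RNA substrate for 1 h at 37 °C across several added MgCl2 levels (1–48 mM), then stopped with EDTA. Products were reverse transcribed from a substrate-complementary primer, PCR-amplified and sequenced (HiSeq 4000). Fitness is a variant's read proportion after selection over that before, normalised to wild type.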
On to C82U A111C A120C A145G C150U C169G U176G, for which the reverse-splicing fitness is 0.00547. In the case of C82U A111C A120C A145G C150U C169G U176C it was 0.0151; in that of C82U A111C A120C A145G C150U C169G U176A, 0.0115. The same measure for C82U A111C A120C U176A: 0.0154; for C82U A111C A120C U176C: 0.0215; for C82U A111C A120C U176G: 0.00517.

On to C82U A111C A120C C150A C169U U176C, for which the reverse-splicing fitness is 0.0181. As for C82U A111C A120C C150A C169U U176A, the reverse-splicing fitness stood at 0.0178. Consider C82U A111C A120C C150A C169U U176G, for which the reverse-splicing fitness amounted to 0.00677. In the case of C82U A111C A120G A145G C150A C169G it was 0.00809; in that of C82U A111C A120G A145G C150A C169A, 0.00989; in that of C82U A111C A120G A145G C150A C169U, 0.00786. In the case of C82U A111C A120G A145G C169G U176G it was 0.00408; in that of C82U A111C A120G A145G C169G U176A, 0.019.

Turning to C82U A111C A120G A145G C169G U176C, the reverse-splicing fitness is 0.028.

Turning to C82U A111C A120C A145G C150A C169G U176C, the reverse-splicing fitness stood at 0.0245. The same measure for C82U A111C A120C A145G C150A C169G U176A: 0.015; for C82U A111C A120C A145G C150A C169G U176G: 0.00635; for C82U A111C A120G A145G U176A: 0.0143.

For the variant C82U A111C A120G A145G U176G, the reverse-splicing fitness was 0.00476. The same measure for C82U A111C A120G A145G U176C: 0.0199. In the case of C82U A111C A120C C150U C169G U176C it was 0.0153; in that of C82U A111C A120C C150U C169G U176A, 0.0121. With C82U A111C A120C C150U C169G U176G, the reverse-splicing fitness was determined as 0.00553. In the case of C82U A111C A120C A145U C150U it was 0.0199. The same measure for C82U A111C A120C A145U C150G: 0.00723. In the case of C82U A111C A120C A145U C150A it was 0.0082. For C82U A111C A120G A145G C169A U176A, the reverse-splicing fitness is 0.0193.

Regarding C82U A111C A120G A145G C169A U176G, the reverse-splicing fitness was found to be 0.00456. The same measure for C82U A111C A120G A145G C169A U176C: 0.0272. In the case of C82U A111C A120G A145C C150U C169G U176A it was 0.0181.

With C82U A111C A120G A145C C150U C169G U176C, the reverse-splicing fitness came to 0.0105.

Turning to C82U A111C A120G A145C C150U C169G U176G, the reverse-splicing fitness was 0.00492. In the case of C82U A111C A120G A145U C150A C169A U176G it was 0.00481; in that of C82U A111C A120G A145U C150A C169A U176A, 0.0102; in that of C82U A111C A120G A145U C150A C169A U176C, 0.00775. Take C82U A111C A120C C150A U176C: the reverse-splicing fitness worked out at 0.022.

For the variant C82U A111C A120C C150A U176G, the reverse-splicing fitness came out at 0.00688. In the case of C82U A111C A120C C150A U176A it was 0.0109; in that of C82U A111C A120G A145C C150G C169A, 0.00748. The same measure for C82U A111C A120G A145C C150G C169G: 0.00642; for C82U A111C A120G A145C C150G C169U: 0.00662. In the case of C82U A111C A120G A145G C150U C169G U176C it was 0.0159; in that of C82U A111C A120G A145G C150U C169G U176G, 0.00467.

Consider C82U A111C A120G A145G C150U C169G U176A, for which the reverse-splicing fitness turned out to be 0.0112. The same measure for C82U A111C A120C A145U C150A C169U: 0.0101; for C82U A111C A120C A145U C150A C169A: 0.00776; for C82U A111C A120C A145U C150A C169G: 0.00745. In the case of C82U A111C A120G A145C C169G U176A it was 0.0216; in that of C82U A111C A120G A145C C169G U176G, 0.00397.

Turning to C82U A111C A120G A145C C169G U176C, the reverse-splicing fitness is 0.0122. With C82U A111C A120G A145G C150U U176G, the reverse-splicing fitness is 0.00547. Take C82U A111C A120G A145G C150U U176A: the reverse-splicing fitness came out at 0.00886. As to C82U A111C A120G A145G C150U U176C, the reverse-splicing fitness was 0.0169. C82U A111C A120C A145G C150A C169U: the reverse-splicing fitness worked out at 0.0103. Take C82U A111C A120C A145G C150A C169G: the reverse-splicing fitness worked out at 0.00891.

Turning to C82U A111C A120G A145C C150A C169A U176C, the reverse-splicing fitness was 0.00587. Consider C82U A111C A120G A145C C150A C169A U176G, for which the reverse-splicing fitness came out at 0.00467.

On to C82U A111C A120G A145C C150A C169A U176A, for which the reverse-splicing fitness is 0.011. As to C82U A111C A120C A145G C150U, the reverse-splicing fitness stood at 0.0229.

Turning to C82U A111C A120C A145G C150G, the reverse-splicing fitness is 0.0102. The same measure for C82U A111C A120G A145C C150U C169A: 0.00786; for C82U A111C A120G A145C C150U C169G: 0.00662; for C82U A111C A120G A145C C150U C169U: 0.00593.

For the variant C82U A111C A120C A145G C169A U176G, the reverse-splicing fitness came to 0.00658.

As for C82U A111C A120C A145G C169A U176C, the reverse-splicing fitness is 0.0232. The same measure for C82U A111C A120C A145G C169A U176A: 0.0198; for C82U A111C A120C C169U U176C: 0.0145; for C82U A111C A120C C169U U176G: 0.00583. The same measure for C82U A111C A120C C169U U176A: 0.018. In the case of C82U A111C A120G A145C C150U C169U U176C it was 0.0072; in that of C82U A111C A120G A145C C150U C169U U176G, 0.00401. For the variant C82U A111C A120G A145C C150U C169U U176A, the reverse-splicing fitness was found to be 0.0137. As for C82U A111C A120C A145U C150G C169G U176C, the reverse-splicing fitness came to 0.0066.

For the variant C82U A111C A120C A145U C150G C169G U176G, the reverse-splicing fitness is 0.00558. In the case of C82U A111C A120C A145U C150G C169G U176A it was 0.00759; in that of C82U A111C A120C A145U C169U U176C, 0.0145; in that of C82U A111C A120C A145U C169U U176A, 0.0127. In the case of C82U A111C A120C A145U C169U U176G it was 0.0054. In the case of C82U A111C A120G A145C, the reverse-splicing fitness came to 0.0118. In the case of C82U A111C A120G A145U it was 0.0159; in that of C82U A111C A120G A145G, 0.0154.

Take C82U A111C A120G A145G C150A C169G U176G: the reverse-splicing fitness was found to be 0.00493.
